# Experiment: soluble on expression in E. coli; label from the status in PepcDB or PDB records
row,Sequence,soluble on expression in E. coli
1,MRIALLVKQARLQQGVRQIDLAERLGITLRTFRRIEAGSADGVSLRDFMLVVWGLGVSERLFQGLRDDESFSVEQLEAADRKRVRLPRNRPEDF,not soluble
2,MRIFVYGSLRQKQGNSHWMTNAQLLGDYRIDNYQLYSLGHYPGAVPGNGAVYGEVYRIDNATLAELDALRTRGGEYARQLIQTPYGSAWMYVYQRPVDGLTLIESGDWLDRNQP,not soluble
3,MRILPQIMAAIVLASPALSQCGGGFSSFVDGLKAEAVSMGHDAALVDRFFQGAAQDAKVLKADRAQGVFQKPFVEFSRRLISQNRLDTGKAMGRKYDAVFDRIEAEYGVSRGVLLAFWAFETDFGGFQGDFNTRNALITLAHDCRRPELFRPQIFAAIELYSHGDFDPARTTGAWAGEIGMVQMLPRDILENGVDGDGDGHVTLKTSAPDALMSGARMLSHLGWRAGEPWLQEVTLPAQMDWSLSGPGKPRSAGEWQAMGVRPRAGDLADLPASLILPQGHKGPAFLAYPNFDVYFEWNQSFVYVLTAAYFGTRLEGGQVYDAGNPAPGLDGAGMKALQQKLQARGHDVGKIDGILGAGTRAAVQAEQARLGLPADAWPTAELLNRL,not soluble
4,MRIPRDTGAAEPGQYRTARTPYAREPMRCLSPAHPCKRVVTMVASQLMKTQIALNWIGALIHMSPSNILTLLPSLSLAKRVSARISKTINATPVLRERVASPRSRDARNTMDTKEFEGGALFATTAGSAANLAELSARFVYGDEVDRWDVDVDDEGDPIELAETRGSTFGRNAKFYFSSSPTIKGASRIDDLFSTSDQRYYYVPCPSCGHMQTLEWERLLYSPDFSTVHYQCAGPDCDVLIEEFHKGDMLARGEWRSHADGDGETVGFHLNALYAPLGWQSWSSLAKQYEKAKKAQDRGDLEPMQVFYNTRLAKVWDSAQEQTKAAVLQARALLEDYVLGTMPTGVLSLVSAVDVQANRLEMMVVGCGEGMERWIVDFQVIMGDPADDRTWLALDEKLKERYRHPCGVSLAILATAVDSGGHHTHEVYQFCRVRRWRNVFAIKGASKPGKPVIAQRPSLVDVTWKGQTERNGAELWMVGTDTAKDWIYNRYHLESGPGALHFPKDLPDDFFAQCVAERKVTRYVKGFKRIEWVKGKAERNEALDLLVYSLAMAHYLGLHRYGEHDW,not soluble
5,MRISNGSGGDNVFTSGRFRRRGAATPLISLDFIVENGQGEILLGQRLNRPAQGYWFVPGGRVCKDETLEAAFARLTQAELGVRLPLAAGTFYGVWQHFYDDNFSGEDFSTHYIVLGFRLRVAESDLRLPDAQHGSYRWLTPEQLLASDNVHENSRAYFSPDAPAVGL,not soluble
6,MRITFIGGGNMAGAIIGGLARQGGHRIHVVEHQQDKLDQLAAGFGCSGSQALPERFAADEVVVLAVKPQQLRELCLALAPVLNGALVVSIAAGIRLDALARWLGSRRIVRVMPNTPAMVGKGVSGLYADAAVSAADRDAAETVMRAAGLTVWLADEAGIDDITCVSGSGPAYVFYFIESMIEAAAKAGFGEDKARELVLATFDGAVELARQSPLPVAELRRNVMSKGGTTERAIARFEAEGVKAAIVAGAMDCRDRSIEMGRELSQELEHHHHHH,soluble
7,MRIWSSEHIFDHEWETVAQAAFRKYPNPLNRSITGIDVVKQTLEAGKILTERIIQSHFSIPSWATKLTGFSGTQYSHEYTVIDPTRKEFSLTTRNLNGSSFLRVDEKLTYTPAHEDPNKTILKQDVIVTITLPAFADYCEKTFLSIYSQNANKGRQGVEWVIDHLKKEYEAISTKVSSEVHEMSEKVLRSFGTTSSSSPKPSTPPPPST,not soluble
8,MRKEVEQLALMGAMPDEADERITAALVDEYADLLGKIVKPVTLDEAHILIKLFPPTALYGIEWTLLHLIESVYSEIKSLEYRELINECNSTEFKKMLVQRLNNSQQKKITNEAG,not soluble
9,MRKGGKGYFLTIRRDYVTVSYYLKYVKDIPLEFREIIDIFNNHKFEQYTQEQINKYTYTCNVRKIEDIDKYDEKNPTKFHEYTRGEACRCQTYNYFKDDEFIKRAKLKCIYYNMLFTESATVYSRHCPIIDLMHFAVYDIEYPPIFNTIVNITIEEYYYNDVSSVLNNKSDLVTKEKKYQLNDTITEIRDDYFDLWLFLKGETHGKRTLVNLSNDYIVIPSSPINNRDVIASDITRNCGLSQNSPLLKGCNYSSICNIMHPCLRKAMMLPKYMFDLSGKTCGKLGVSLNT,not soluble
10,MRKIKIGLALGSGAARGWSHIGVINALKKVGIEIDIVAGCSIGSLVGAAYACDRLSALEDWVTSFSYWDVLRLMDLSWQRGGLLRGERVFNQYREIMPETEIENCSRRFAAVATNLSTGRELWFTEGDLHLAIRASCSIPGLMAPVAHNGYWLVDGAVVNPIPISLTRALGADIVIAVDLQHDAHLMQQDLLSFNVSEENSENGDSLPWHARLKERLGSITTRRAVTAPTATEIMTTSIQVLENRLKRNRMAGDPPDILIQPVCPQISTLDFHRAHAAIAAGQLAVERKMDELLPLVRTNI,not soluble
11,MRKILVVGAGQSGLQLALGLQSHGYEVTLMSNRTADEIRTGRVMSTQCMFHTALQHERDLQLNFWESQAPKIEGLGVSVAAPGSFDPGPSQRAIDWLGHLDGFAQSVDQRVKMAGWMETFAQRGGQLVIHGAAVGDLDYFSRAYDLVLVSAGKGELVQMFGRDAERSPYSEPQRALAVAYVHGMGPRPEHPETEAVRCNLVPGVGEMFIMPTFTTSGRADILFWEGIPGGPLDAFKDVKDPAEHLSLTLELMEKFLPWEYARATKVELTDAGGTLAGRYAPTVRNPVGRLPGGGAVLGVADVVVANDPITGQGSNSASKCAASYLASIIEHGDQEFDETWMRQTFDRYWETAQHVTKWTNTMLAPPPEHILNLFGAATQLQPIADRFANGFNDPSDFENFFYDPAKTEGYLAEVSGAAGALEHHHHHH,not soluble
12,MRKKEDKYDFRALGLAIKEARKKQGLTREQVGAMIEIDPRYLTNIENKGQHPSLQVLYDLVSLLNVSVDEFFLPASSQVKSTKRRQLENKIDNFTDADLVIMESVADGIVKSKEVGEMAGENLYFQ,soluble
13,MRKKPLTIFSDGTLTRRENTLYFESAKGRKPLAIEGIYDIYIYGHVNITSQALHYIAQKGILIHFFNHYGYYDGTFYPRETLLSGDLIIRQAEHYLNKEKRLFLAKSFVTGGTKNMERNLKNWGIKAKLSDYLDELNDARKITEIMNVEARIRQEYYAKWDENLPEEFKIVKRTRRPPKNEMNALISFLNSRLYATIITEIYNTQLAPTISYLHEPSERRFSLSLDLSEIFKPIIADRVANRLVKKGSLKKEHFREDLNGVLLTEEGMKIVTKAYNEELQKSVKHPKIGSNVTRQRLIRLEAYKLIKHLVGVEEYKPLVAWF,soluble
14,MRKPKITVIGGGTGIPVILNSLRHEEVDITAIVTVADDGGSSGAIRHVMQLTPPGDLRNVLVAMSDMPKFYERIFQYRFNAEDGALAGHPLGNLIIAGISEMQGSTYNAMQILSKFFHTTGKIYPSSEKALTLHAVFQDGQEVVGESQIAKHKGMIDHVYVANSYDDAKPTASRKVVDAIMESDMIVLGPGSLFTSILPNLVIDEIGKALCETEAEVAYVCNIMTQYGETEHFTDADHVRVLNRHLGQNFIDTVLVNVEKVPQDYMNSNQFDEYLIQVEHDFAGLQEQVPRVVSSNFLCLENGGAFHNGKSVVDELMNLIKVKELLEHHHHHH,not soluble
15,MRLATKDLAEAIRKGQVRKSSFNTEQLRAIEKGESKIPDYTWHHHQDTGRMQLIREGLHHDTGHIGWEAMNKGR,not soluble
16,MRLNHNSYEIFDFMRSRSAIGVLSKIIITIPPINLRMIIGVMGPEGSYSERAAKLWARKNGLRGAEFHYFADIEDAFLAAVGGKTDISVVPVENSIEGSVGVTLDLLLENEAVIIGEIVVKIEHCLLSKGEPEKIRVILSHPQGLAQCRHFLKTHFPEAELRSTGSTSHAARLAGEFEEMAAIASPEAAERYGLKILLSNVQDRKENHTRFIVVRGGEKVLSGKIKGKADSGEKLNTVFGRNAEHKLCSETETGTENSSSYAFKTSLIVYLEKDRPGALYEPLGFFAKRGINLTKIESRPSKKELGDYYFYIDLEGNISDVLIKDALEDIKSKASKKSRSSTLKVLGSYPAFKK,not soluble
17,MRLVDLRSDTLTRPTPAMRKAMAEAEVGDDAYGEDPTVNRLEALAAERLGFERALFLPSGTMANQVALLLHLPKELEAEARRYRKLLGGGWRQAGVLAAAGILALEEGPKHLRRDHEMARALAEGLFRLGLAVDLGAVETNMVYLEVEDPEGFLQGLRARGVLAGRVGGRVRFVTHRDLMDEDIPLALERVQDLLHSRPR,soluble
18,MRMLRRLRRATVAAAVWLATVCLVASCANADPLGSATGSVKSIVVGSGDFPESQVIAEIYAQVLQANGFDVGRRLGIGSRETYILALKDHSIDLVPEYIGNLLLYFQPDATVTMLDAVELELYKRLPGDLSILTPSPASDTDTVTVTAATAARWNLKTIADLAPHSADVKFAAPSAFQTRPSGLPGLRHKYSLDIAPGNFVTINDGGGAVTVRALVEGTATAANLFSTSAAIPQNHLVVLEDPEHNFLAGNIVPLVNSRKKSDHLKDVLDAVSAKLTTAGLAELNAAVSGNSGVDPDQAARKWVRDNGFDHPVRQ,soluble
19,MRNKNMSTIYQTSATASAGRNGVVSTEDKLLELNLSYPKEMGGSGTATNPEQLFAVGYAACFSNAILHVAREAKVALKEAPVTATVGIGPNGQGGFALSVALAAHIALEDEQARQLVTVAHQVCPYSNAVRGNIDVQVSVNGLAL,not soluble
20,MRNVLKAETLERKFPLLSVENGCIVSKDADLTVAFEVELPELFTMTAAEYEAVHSSWVKAVKVLPDFSVVCKQDWFTKETYRPDFRDGEQSFLSKSYERHFNERPYLNHKCYLYLTKTTRERSRQRSDFNSLCCGSLLPKEMVDKDTAVRFLEAVEQFERIMNDSGHVSLRRLEADEITGTEGRPGLVEKYFSLSLEDETAVLQDICLNPGGMRVGDKRLCVHTLSDTEDLPVRVSTDMRYGRMSTDRSDCRLSFAAPVGLLLPCNHIYSQYVFIDDAQEILRTMEKTSRNMLSLSKYSRSNAVNREWTEMYLDEAHTKGVLPVRCHCNVMAWAEDREELRRVKNDTGSQLAMMECTPRHNTVDAPVLYWAGIPGNAGDFPAEESFYTFLEQAVCLFTAETNYRSSSSPFGIRMADRRNGIPLHVDISDLPMKRGIITNRNKFVLGPSGSGKSFFTNHLVRQYYEQGTHILLVDTGNSYQGLCRMIHDRTHGEDGIYITYEEDNPIAFNPFYTDSGQFDVEKRESIKTLILTLWKREDEAPKRSEEVALSGAVNAYIRRITDDRASRPDFNGFYEFVRDDYRRMIEQKKVREKDFDIDGFLNVLEPFYRGGDYDFLLNSDKELDLTNKRFIVFELDNISSNKVLLPVVTLIIMETFISKMRKLRGIRKMILIEECWKALMSANMSEYIKYLFKTVRKYFGEAVVVTQEVDDIISSDIVKEAIINNSDCKILLDQRKYMNKFEHIQKLLGLTEKERGQILSINRANRPGPFYREVWIGLGGTHSAVYATEVSAEEYAVRP,not soluble
21,MRPARALIDLQALRHNYQLAREVTGAKALAVIKADAYGHGAVRCAQALEAEADGFAVACIEEALELRAAGIRAPILLLEGFFEADELPLIVEHDFWCVVHSLWQLDAIEQARLAKPIHVWLKLDSGMHRVGLHPNDYKAAYQRLQASANVAKIVLMSHFARADELDCTRSVEQVAVFLGARADLTAEISLRNSPAVLGWPRVPSDWVRPGLMLYGSSPFDEPQATASRLQPVMTLESKVICVRELPAGEPVGYGARFITPKPMRIGVVAMGYADGYPRQAPTGTPVFVDGVRSQLLGRVSMDMLCIDLTDVPQAGLGSTVELWGKNILASEVATAADTIPYQIFCNLKRVPRLYSGN,soluble

# — the DeepSol protein solubility set
